Reference: the nanobody polyreactivity screen of Harvey et al. (2022)

Experiment: yeast display, Sf9 membrane polyspecificity reagent, FACS + sequencing; frameworks hold sequencing errors
In short: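 Genes from sorted yeast were amplified by colony PCR, read by MiSeq 2 × 250 sequencing and filtered on CDR length. These cells carried a synthetic nanobody library in Saccharomyces cerevisiae BJ5465 and were sorted by FACS into low and high (top ~1%) gates on anti-HA and streptavidin fluorescence. Polyreactivity is labelled according to the gate of origin.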

For “QLQLLESAVGLVQAGGSLRLSCASSGRIFTQNTMGWYRQAPAKESELVAAINYSGGRTNYADSVKGRFTISRDNAKNTVYLQMNSLKPEDTAVYYCAAGYRRATYGYWGQGTQVTVSS”, which “polyreactivity (PSR sort gate)” value is on record?
The value was “high polyreactivity”.

For “QLQLLESGGGIVQAGGILRLSCAASGFTFAHYAMGWYRQAPGIERELVAAITSRGGSTYYADSVKGRFTISRDNAKNPVYLQMNSLKPEDTAVYYCAAKTLLFIFGYWGQGTHVTVSS”, which “polyreactivity (PSR sort gate)” value is on record?
Its value is “high polyreactivity”.

Which “polyreactivity (PSR sort gate)” value does the source give for “QLQLQEGGGGLVQAGGSLRLSCAASGYISYGDVMGSYRQAPGEERELVASIGLDATTNYADSVKGRFNISRDNAKITVYLQMNSLKPEDTAVYYCAAVVGSGVLCGYWGQGTQMTVSS” here?
The value was “high polyreactivity”.

Which “polyreactivity (PSR sort gate)” value does the source give for “QLQLQESGGGLVQAGGSLRLSCAWSGTIAFTRDLGSYRQAPGKDREFVASIDRGASTYYADSVKGRFTISRDNAKNTVYLQMNSLKPEDTAVYYRAVIAPFYSSFAYWGQGTQVTVSS” here?
Its value is “high polyreactivity”.

Which “polyreactivity (PSR sort gate)” value does the source give for “QLQLQESGGGLVQAGGSLRLSSAASGTISPLPAMGLYSQATGKERELVPGIDTGAITNYADSVKGRFTISRDNAKHTVYLQMNSLKPEDTAVYYCAVFPAAYDYYERYYTEWGQGTQVTVSS” here?
Its value is “high polyreactivity”.

For “QLQLQESGGLVQAGGSLRLSCAASGSISGRNVIGCYRQAPGKEREYVASITDGSSTNYADSVKGRFTISRDNAKNTVYLQMNSLKPKDTAVYYCAAYAQRAKSFGYWGRGTQVTVSS”, which “polyreactivity (PSR sort gate)” value is on record?
Its value is “low polyreactivity”.

For “QLQLVESFTGLVQAGGSLRLSCAASVPTFASYAMGWSRQAPGKERELVAVITRGVRTYYADSVKGRITISRDNAMNTVYLQMNSLKPEDTAVYDCAKERYNANYDTSLYDYWGQGTQGTVSS”, which “polyreactivity (PSR sort gate)” value is on record?
The value was “low polyreactivity”.

Which “polyreactivity (PSR sort gate)” value does the source give for “QLQLVESGACLVQAGGSLRLSCAASGRIFTSYSMGWYRHAPGKEREMVAAINRGADTYYADSVKGRFTISRDNAKNTVYLQMNSVKPEDNAVYYCNAADAVSDYPDFQIYDYWGQGTQVTVSS” here?
Its value is “low polyreactivity”.

Which “polyreactivity (PSR sort gate)” value does the source give for “QLQLVESGAGRVQAGGSLRLRCAAAGSILRDNAMVWYRQAPWKEREFVADIRGSDDTTYYADSVKGRFTISRDNGKNSVYLQMNSLKPEDTAVYYSNRDDAWQEYDYWGQGTQVTVSS” here?
The value was “low polyreactivity”.

Which “polyreactivity (PSR sort gate)” value does the source give for “QLQLVESGGGLDQAGGSLRLSCAASGFTFVSYAMGWYRQAPGKERELVAVISYRAGSTYYADSVKGRFTISRDNAKNTVYLQMYSLKPEDTAVYYCATDRYSRRNDYWGQGTQVTVSS” here?
The value was “high polyreactivity”.

Which “polyreactivity (PSR sort gate)” value does the source give for “QLQLVESGGGLFQAGGSLRISCAPSGRIFKLNAMGWYRQAPGKEMELVAAINSGTRTYYADSVKGRFTISSYNAKNTVYLQLNSLKPEDTAVYYCAAEGVWWYSRYDYWGQGTQVTVSS” here?
Its value is “high polyreactivity”.

With “QLQLVESGGGLVKAGGSLRLSCAASGSTFGGNAMGWYRQAPGKERELVASISSSGGRTYYADSVKGRFTISRDNAKNTVYLQMNSLTPEDTAVYYCARRYYYQYRYDYWGQGTQVTVSS” as the sequence, how does the “polyreactivity (PSR sort gate)” value read?
Its value is “high polyreactivity”.

For “QLQLVESGGGLVPAGGSLRLSCAASGIIFTSNTMGWYRQAPGKEREFVASINWNGSSTYADSVKGRFTISRDNGKNTVYLEMNSLKPEDTAVYYCNADYISNSVQFSLYDYWGQGTQVTVSS”, which “polyreactivity (PSR sort gate)” value is on record?
The value was “low polyreactivity”.

Which “polyreactivity (PSR sort gate)” value does the source give for “QLQLVESGGGLVQAGGRLRLSCAASGRTFYDYAMGWYRQSPGKERELVAAIDNGGSTYYADSVKGRFTISRDNAKNTVYLQKNSLKPEDTAVYYCNADGATVWSLEYCGQGTQVTVSS” here?
The value was “low polyreactivity”.

With “QLQLVESGGGLVQAGGRLRLTCAASGSIFFGNVMGLYIQAPGKERELVAVISWSGGTTYYADSVKGRFTISRDNAKNTVYLQMNSLKTEDTAVYYCNARYLRRGDYWGQGTQVTVSS” as the sequence, how does the “polyreactivity (PSR sort gate)” value read?
The value was “low polyreactivity”.

Which “polyreactivity (PSR sort gate)” value does the source give for “QLQLVESGGGLVQAGGSLRISCAASGFIFNGYAMGWSRQAPGKERELVAAITADVGDTYYADSVKGRFTLSRDNAKYTVYLQLNSLKPDDPAVYYCAADQAEWLDPDDYWGQGTQVTVSS” here?
The value was “low polyreactivity”.

Which “polyreactivity (PSR sort gate)” value does the source give for “QLQLVESGGGLVQAGGSLRLRCAASGNTFYQYAMGWYIQAPGQQREMVAAISSGGRTNYADSVKGRFTISRDNAKNNVYLQMNSLKPEDTAVYYFAADVGYFKSDYWGQGTQVTVSS” here?
The value was “low polyreactivity”.

For “QLQLVESGGGLVQAGGSLRLSCAASGFTFRCNAMGWYRQAPGKEMELVAGITSGGSTNYADSVKGRFTISRDNAKNTVYLQMNSLKPEDTAVYYCNAAWYRWKQRYDYWGQGTQVTVSS”, which “polyreactivity (PSR sort gate)” value is on record?
The value was “low polyreactivity”.

Which “polyreactivity (PSR sort gate)” value does the source give for “QLQLVESGGGLVQAGGSLRLSCAASGGIFPYYAMGWYRQAPGKEMELVAAISRSGGITYYADSVKGRFTISRDNAKNTVYLQMNSLKPEDTAVYYCAALSRWRYKRYDYWGQGTQVTVSS” here?
The value was “high polyreactivity”.

With “QLQLVESGGGLVQAGGSLRLSCAASGIIFRWYAMGFYRQAPGKERELVAAITSSGGRTYYADSVKGRFTISRDNAKNTVYLPMNILKPEDTAVYYCAASYYIVGCDPYDYWGQGTQVTVSS” as the sequence, how does the “polyreactivity (PSR sort gate)” value read?
The value was “high polyreactivity”.

Which “polyreactivity (PSR sort gate)” value does the source give for “QLQLVESGGGLVQAGGSLRLSCAASGITFGANTMGWYRQAPGTERELVAAITISGGITHYADSVKGRFTISRDNAKNTVYLQMNSLKPEDTAVYYCAAGAYWRLYPYRQRNGGRMYYWGQGTQVTVSS” here?
The value was “low polyreactivity”.

With “QLQLVESGGGLVQAGGSLRLSCAASGITFYVYAMGCYRQAPGKERELVAAISTSGGSTYYADSVKGRFTISRDNAKNTVYFQMNSLKPEDTAVYYCAAEELRYGLYEYDYWGQGTQVTVSS” as the sequence, how does the “polyreactivity (PSR sort gate)” value read?
Its value is “high polyreactivity”.

With “QLQLVESGGGLVQAGGSLRLSCAASGLILPYYAMGWYRQAPGKERALVAAISRTGGRTSYADSVKGRFTISRDNAKNTVYLQMNSLKPEDTAVYYCAARYGRYYGYNYWGQGTQVTVSS” as the sequence, how does the “polyreactivity (PSR sort gate)” value read?
Its value is “high polyreactivity”.

For “QLQLVESGGGLVQAGGSLRLSCAASGLILYSYAMGRYRQAPGKERELVADISSGGITNYADSVKGRFTISRDNAKNTVYLQMNSLKPADTAVNYCAADTRPVNYILYEYWGQGTQVTVSS”, which “polyreactivity (PSR sort gate)” value is on record?
The value was “low polyreactivity”.

For “QLQLVESGGGLVQAGGSLRLSCAASGLTFSYYAMGSYRQAPGKERELVAAITSSGGNTYYADSVKGRFTISRDNANNTVYLQMNSMKPEDTAVYYCAAERYQSFCYGKRPRRPRYDYWGLGTQVTVSS”, which “polyreactivity (PSR sort gate)” value is on record?
Its value is “high polyreactivity”.

Which “polyreactivity (PSR sort gate)” value does the source give for “QLQLVESGGGLVQAGGSLRLSCAASGLTFYVYAMGWYRQAPCKERELVAAISSGGRTYYADSVKGRFTISRDNAKNTVYLQMNSLKPEDTAVYYCAAVRHRNYGYWGQGTQVTVSS” here?
Its value is “high polyreactivity”.

For “QLQLVESGGGLVQAGGSLRLSCAASGLTYEGYAMGWYRQAPGKERELVAAITGSGSTTYYADSVKGRFTISRDNAKNTVYLQMNSLKPEDSAVYYCAADVSYKLYWGQGTQVTVSS”, which “polyreactivity (PSR sort gate)” value is on record?
The value was “low polyreactivity”.

With “QLQLVESGGGLVQAGGSLRLSCAASGRIFRRYTMRSYRQAPGKERELVAAITWKGGRTSYADSVKGRFTISRDNANNTVYLQMNSLKPQDTAVYYCAAECPSRYHTFEFWGQGTQVTVSS” as the sequence, how does the “polyreactivity (PSR sort gate)” value read?
The value was “high polyreactivity”.

With “QLQLVESGGGLVQAGGSLRLSCAASGRIFTGNAMGWYRQAPGKERELVAAISYSGGSTYYADSVKGRFTISRDNAKNTVYLQMNSLKPEDTAVYYCAAAGRYLRYGYWGQGTQVTVSS” as the sequence, how does the “polyreactivity (PSR sort gate)” value read?
The value was “high polyreactivity”.

With “QLQLVESGGGLVQAGGSLRLSCAASGRIFWPNALGWYRQAPGKEREFVAAIRWSSDRTYYADSVKGRFTISRDNAKNTVYLQRNSLKPEDTAVYYCNAVRYVISKYDYWGQGTQVTVSS” as the sequence, how does the “polyreactivity (PSR sort gate)” value read?
Its value is “high polyreactivity”.

Which “polyreactivity (PSR sort gate)” value does the source give for “QLQLVESGGGLVQAGGSLRLSCAASGRNFGYNAMGWYRPAPGKERELVAVINIDGSTNYADSVKGRFTISRDNAKNTVYLQLNSLNPEDTAVYYCAARYWKSYRNGGFFGFTYYYWGQGTQVTVSS” here?
Its value is “high polyreactivity”.

With “QLQLVESGGGLVQAGGSLRLSCAASGRTFIHYAMGWYRQAPGKERELVAAISDDASSTYYADSVKGRFTISRDNAKNTVYLQMNSLKPEDTAVYYCNVELAKVGGVEYDYWGQGTLVTVSS” as the sequence, how does the “polyreactivity (PSR sort gate)” value read?
The value was “low polyreactivity”.

For “QLQLVESGGGLVQAGGSLRLSCAASGSIFFSYAMGWYRQAPGKERELVAAIDYSGGGTYYADSVKGRFTISRDNAKNTVYLQMNSLKPEDTAVYYCNSDTEVWADTFISYRALNYWGQGTQVTVSS”, which “polyreactivity (PSR sort gate)” value is on record?
The value was “low polyreactivity”.

For “QLQLVESGGGLVQAGGSLRLSCAASGSIFHRYAMGWYRQAPGKEREFVAAISGRGGSTYYADSVKGRITISRDNAKNTVYLQMNSLKPEDTAVYYCAADSSLFYGRPRYYYWGQGTQVTVSS”, which “polyreactivity (PSR sort gate)” value is on record?
Its value is “high polyreactivity”.

For “QLQLVESGGGLVQAGGSLRLSCAASGSIFNQYAMGWYRQAPGKERELVAAISSGSTYYADSVKGRFIISRDNAKNTVYLQMFSLKPEDTAVYYCAAGRNRRSSGIYVSKYWGQGTQETVSS”, which “polyreactivity (PSR sort gate)” value is on record?
Its value is “high polyreactivity”.

Which “polyreactivity (PSR sort gate)” value does the source give for “QLQLVESGGGLVQAGGSLRLSCAASGSIFPDYAMGWYRPAPAKERELVAAITWRDDSTYYADSVKGRFTISRDNAKNTVYLQMNSLKPEDTAVYYCNASALDPLYAKDDYWGQGTQVTVSS” here?
Its value is “low polyreactivity”.

With “QLQLVESGGGLVQAGGSLRLSCAASGSILYIKTMGWYRQAPGKERELVAAITYSGGSTYYADAVKGRFTISRDNAKNTVYLQMTSLKPEDTAVYYCAADGYYGGFNYWGQGTQVTVSS” as the sequence, how does the “polyreactivity (PSR sort gate)” value read?
The value was “low polyreactivity”.

Which “polyreactivity (PSR sort gate)” value does the source give for “QLQLVESGGGLVQAGGSLRLSCAASGSIYWRNAMGWYRQAPGKERELVAAITSGGSTYYADSVKGRFTISRDNAKNTVYLQMNSLKPEDTAVYYCAAGYSYRYGYWGQGTQVTVSS” here?
Its value is “low polyreactivity”.

With “QLQLVESGGGLVQAGGSLRLSCAASGSTFLYNAMGWYRQAPGKERELVAAITVSDGSTYYADSVKGRFTISRDNAKNTVYLKMNSLKPVDTAVYYCNADFPRKTRYEYWGQGTQVTVSS” as the sequence, how does the “polyreactivity (PSR sort gate)” value read?
The value was “low polyreactivity”.

For “QLQLVESGGGLVQAGGSLRLSCAASGSTFPTNAMGWYRQAPGKERELVARISWDGGRTNYADSVKGRFTISRDNAKNTVYLQMNSLKPEDTAVYYCAAEKQHFGPYGYWGQGTQVTVSS”, which “polyreactivity (PSR sort gate)” value is on record?
Its value is “low polyreactivity”.

For “QLQLVESGGGLVQAGGSLRLSCAASGSTFREYAMGWYRQAPGKERELVAAISSGDSTNYADSVKGRFTISRDNAKNTVYLQMNSLKPEDTSVYYCAADAQGAAAVQNDYWGQGTQVTVSS”, which “polyreactivity (PSR sort gate)” value is on record?
Its value is “low polyreactivity”.
